Assay results from patent US20150374794A1 (Novo Nordisk, published 2015).
Numbered stars: 1 amine (or outer) side, 2 acyl side, 3 side chain; on linkers, the order of the positions; unused ones are H or OH. Square brackets hold non-standard residues; d marks the D form. Side chains are listed from the residue outwards. Ends that are not written are not given here. * marks the point of attachment. C18 diacid = O=C(O)CCCCCCCCCCCCCCCCC(=O)*; γGlu = O=C(O)[C@H](CCC(=O)[*:2])N[*:1]; AEEA = NCCOCCOCC(=O)O; Ac3c = NC1(C(=O)O)CC1; Aib = CC(C)(N)C(=O)O

B1: N^ε28-[(4S)-4-carboxy-4-[[(4S)-4-carboxy-4-[[2-[2-[2-[[2-[2-[2-[[(4S)-4-carboxy-4-(17-carboxyheptadecanoylamino)butanoyl]amino]ethoxy]ethoxy]acetyl]amino]ethoxy … (peptide)
peptide: H[Ac3c]QGTFTSDLSKYLESRRAREFVQWLLK([γGlu-γGlu-AEEA-AEEA-γGlu-C18 diacid])T-NH2
modifications: N-terminus assumed
SMILES: CC(C)C[C@H](NC(=O)[C@H](Cc1ccc(O)cc1)NC(=O)[C@H](CCCCN)NC(=O)[C@H](CO)NC(=O)[C@H](CC(C)C)NC(=O)[C@H](CC(=O)O)NC(=O)[C@H](CO)NC(=O)[C@@H](NC(=O)[C@H](Cc1ccccc1)NC(=O)[C@@H](NC(=O)CNC(=O)[C@H](CCC(N)=O)NC(=O)C1(NC(=O)[C@@H](N)Cc2c[nH]cn2)CC1)[C@@H](C)O)[C@@H](C)O)C(=O)N[C@@H](CCC(=O)O)C(=O)N[C@@H](CO)C(=O)N[C@@H](CCCNC(=N)N)C(=O)N[C@@H](CCCNC(=N)N)C(=O)N[C@@H](C)C(=O)N[C@@H](CCCNC(=N)N)C(=O)N[C@@H](CCC(=O)O)C(=O)N[C@@H](Cc1ccccc1)C(=O)N[C@H](C(=O)N[C@@H](CCC(N)=O)C(=O)N[C@@H](Cc1c[nH]c2ccccc12)C(=O)N[C@@H](CC(C)C)C(=O)N[C@@H](CC(C)C)C(=O)N[C@@H](CCCCNC(=O)CC[C@H](NC(=O)CC[C@H](NC(=O)COCCOCCNC(=O)COCCOCCNC(=O)CC[C@H](NC(=O)CCCCCCCCCCCCCCCCC(=O)O)C(=O)O)C(=O)O)C(=O)O)C(=O)N[C@H](C(N)=O)[C@@H](C)O)C(C)C
B2: N^ε28-[(4S)-4-carboxy-4-[[(4S)-4-carboxy-4-[[2-[2-[2-[[2-[2-[2-[[(4S)-4-carboxy-4-(17-carboxyheptadecanoylamino)butanoyl]amino]ethoxy]ethoxy]acetyl]amino]ethoxy … (peptide)
peptide: H[Aib]QGTFTSDLSKYLD[Aib]RRAREFVQWLLK([γGlu-γGlu-AEEA-AEEA-γGlu-C18 diacid])T-NH2
modifications: N-terminus assumed
SMILES: CC(C)C[C@H](NC(=O)[C@H](Cc1c[nH]c2ccccc12)NC(=O)[C@H](CCC(N)=O)NC(=O)[C@@H](NC(=O)[C@H](Cc1ccccc1)NC(=O)[C@H](CCC(=O)O)NC(=O)[C@H](CCCNC(=N)N)NC(=O)[C@H](C)NC(=O)[C@H](CCCNC(=N)N)NC(=O)[C@H](CCCNC(=N)N)NC(=O)C(C)(C)NC(=O)[C@H](CC(=O)O)NC(=O)[C@H](CC(C)C)NC(=O)[C@H](Cc1ccc(O)cc1)NC(=O)[C@H](CCCCN)NC(=O)[C@H](CO)NC(=O)[C@H](CC(C)C)NC(=O)[C@H](CC(=O)O)NC(=O)[C@H](CO)NC(=O)[C@@H](NC(=O)[C@H](Cc1ccccc1)NC(=O)[C@@H](NC(=O)CNC(=O)[C@H](CCC(N)=O)NC(=O)C(C)(C)NC(=O)[C@@H](N)Cc1c[nH]cn1)[C@@H](C)O)[C@@H](C)O)C(C)C)C(=O)N[C@@H](CC(C)C)C(=O)N[C@@H](CCCCNC(=O)CC[C@H](NC(=O)CC[C@H](NC(=O)COCCOCCNC(=O)COCCOCCNC(=O)CC[C@H](NC(=O)CCCCCCCCCCCCCCCCC(=O)O)C(=O)O)C(=O)O)C(=O)O)C(=O)N[C@H](C(N)=O)[C@@H](C)O

Legend:
human GLP-1 receptor [1] = target: T1, human GLP-1 receptor (human, UniProt P43220 24-463); assay: cell-based or functional assay
human glucagon receptor [2] = target: T2, human glucagon receptor (human, UniProt P47871 26-477); assay: cell-based or functional assay
human GLP-1 receptor [3] = target: T1, human GLP-1 receptor; assay: displacement of 125I-GLP-1(7-36)NH2, membranes with human GLP-1R, SPA
Protocol: (§1) The receptor binding of each compound to the human GLP-1 receptor was measured in a displacement binding assay. […] Each derivative was added in a series of concentrations to isolated membranes containing the human GLP-1 receptor and displacement of the labelled ligand was monitored. The receptor binding was reported as the concentration at which half of the labelled ligand was displaced from the receptor, the IC₅₀ value.

human glucagon receptor [4] = target: T2, human glucagon receptor; assay: displacement of 125I-glucagon, membranes with human glucagon receptor, SPA
Protocol: as §1, with “human glucagon” for “human GLP-1”, “ligand is” for “ligand was”

T2 sequence (P47871 26-477): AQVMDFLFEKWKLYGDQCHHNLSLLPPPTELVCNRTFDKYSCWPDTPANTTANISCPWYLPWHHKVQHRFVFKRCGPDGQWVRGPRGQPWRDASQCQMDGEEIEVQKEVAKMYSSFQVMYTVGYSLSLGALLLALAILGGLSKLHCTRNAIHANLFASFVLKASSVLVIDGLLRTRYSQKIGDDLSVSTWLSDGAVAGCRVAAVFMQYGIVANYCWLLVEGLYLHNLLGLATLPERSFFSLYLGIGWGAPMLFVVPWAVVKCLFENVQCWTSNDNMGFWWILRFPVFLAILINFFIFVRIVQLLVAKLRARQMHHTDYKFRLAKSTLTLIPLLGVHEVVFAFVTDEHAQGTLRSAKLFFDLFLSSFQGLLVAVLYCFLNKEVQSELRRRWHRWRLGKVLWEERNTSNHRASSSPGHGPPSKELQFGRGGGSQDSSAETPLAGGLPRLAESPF

Row | Binder | EC50 GLP-1R, CRE luciferase reporter gene assay in BHK cells (human GLP-1 receptor [1]) | EC50 GlucR, CRE luciferase reporter gene assay in BHK cells (human glucagon receptor [2]) | IC50 (human GLP-1 receptor [3]) | IC50 (human glucagon receptor [4])
1 | B1 | 0.011 nM | 0.28 nM | 2.2 nM | 26.2 nM
2 | B2 | 0.006 nM | 0.004 nM | 0.7 nM | 1.4 nM
